Results as given in the supplement of paper PMC10567573.

B1: ZNF649 (parent)
chain: DECEKAYFYMSCLVKHKRIHSREK
B2: RAB11B (parent)
chain: AVPTDEARAFAEKNNLSFIETSAL

Variants of: B1
Experiment: protein stability index of a GFP-peptide fusion (GPS, HEK-293T) (PSI 1-6); higher = more stable
Conditions: c terminus: a fixed tail appended
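Also: lentivirally expressed fusions sorted by FACS into six bins by GFP to DsRed ratio, PSI derived from sequencing read proportions per bin multiplied by bin number.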

Variant	protein stability index
K5G	3.13
K5S	2.44
K5I	1.79
K5A	2.71
K5R	2.5
K5V	1.81
K5F	1.67
K5N	2.84
K5D	3.36
K5T	2.64
K5Y	1.82
K5C	2.52
K5W	2.82
K5L	2.61
K5P	3.51
K5M	2.34
K5E	2.95
K5H	2.79
K5Q	3.08
A6F	1.64
A6Y	1.76
A6S	3.04
A6D	3.52
A6R	2.35

Variant	protein stability index
A6W	2.03
A6T	2.55
A6Q	3.02
A6N	2.65
A6M	1.9
A6C	2.08
A6E	3.01
A6L	2.08
A6I	1.89
A6P	2.79
A6V	1.96
A6H	2.58
A6G	2.75
A6K	2.56
C3E	3.97
C3M	2.4
C3D	2.98
C3Y	2.67
C3S	2.53
C3P	2.77
C3L	1.8
C3G	2.92
C3T	2.9
C3R	2.33

Variant	protein stability index
C3A	3.06
C3K	2.88
C3H	2.35
C3N	2.64
C3V	2.55
C3I	1.81
C3Q	3.11
C3W	1.97
C3F	1.91
E4Q	2.34
E4I	2.17
E4T	2.88
E4V	1.79
E4F	1.92
E4H	2.26
E4Y	2.01
E4R	2.33
E4A	1.62
E4M	1.44
E4G	1.76
E4P	2.45
E4D	2.83
E4C	2.01
E4L	2.18

Variant	protein stability index
E4K	1.66
E4N	2
E4W	1.99
E4S	2.48
D1Y	2.17
D1F	1.98
D1T	2.9
D1S	2.81
D1I	1.98
D1R	2.03
D1K	2
D1G	1.92
D1C	1.98
D1L	1.98
D1M	2.06
D1A	2.41
D1V	1.57
D1W	2.2
D1H	2.61
D1Q	2.44
D1N	2.72
D1P	2.44
D1E	2.47
Y7E	3.7

Variant	protein stability index
Y7C	3.25
Y7F	2.88
Y7A	3.53
Y7D	4.07
E2Q	2.49
E2R	2.08
E2L	2.25
E2K	2.17
E2P	2.21
E2V	1.57
E2H	2.03
E2M	1.41
E2A	2.17
E2N	2.62
E2S	1.72
E2I	1.71
E2D	2.21
E2F	2.82
E2G	2.29
E2Y	4.44
E2T	3.17
E2C	1.52

Variants of: B2
Experiment: as above
Conditions: c terminus: a fixed tail appended

Variant	protein stability index
E12V	2.47
E12Y	1.93
E12S	2.08
E12R	2.15
E12T	2.61
E12W	1.6
E12Q	2.52
I19Q	4.38
I19C	4.34
I19D	4.99
I19V	3.26
I19M	4.21
I19K	4.79
I19A	4.6
I19T	4.11
I19S	4.56
I19Y	3.73
I19P	5.04
I19N	4.1
I19L	3.25
I19F	4.37
I19E	4.59
I19R	4.54
I19W	3.62

Variant	protein stability index
I19H	3.49
I19G	4.64
N14H	2.26
N14Y	2.53
N14S	2.84
N14A	2.48
N14K	3.38
N14D	3.96
N14I	2.23
N14L	2.23
N14Q	3.47
N14F	2.25
N14P	2.53
N14R	2.27
N14E	4.35
N14T	2.88
N14C	2.18
N14V	2.18
N14W	2.83
N14M	2.25
N14G	2.73
S22L	3.08
S22I	2.49
S22K	3.69

Variant	protein stability index
S22W	2.91
S22R	3.13
S22F	2.52
S22N	3.69
S22Y	1.96
S22P	4.02
S22M	2.83
S22V	3.19
S22E	4.06
S22A	2.71
S22C	3.36
S22Q	3.56
S22D	4.17
S22G	2.85
S22H	2.74
S22T	2.98
S17D	3.48
S17G	3.7
S17E	4.62
S17P	4.19
S17F	2.59
S17L	2.77
S17V	3.15
S17Q	4.23

Variant	protein stability index
S17A	2.78
S17I	2.89
S17T	2.93
S17R	3.41
S17Y	2.85
S17H	3.07
S17K	3.79
S17M	3.1
S17W	2.64
S17N	2.86
S17C	3
L16F	3.36
L16V	4.29
L16R	4.42
L16S	4.37
L16Q	4
L16P	4.47
L16A	3.8
L16T	4.57
L16H	4.06
L16I	3.95
L16N	4.25
L16W	3.25
L16K	4.62

Variant	protein stability index
L16M	4.2
L16Y	3.18
L16G	4.3
L16C	4.1
L16E	5.02
L16D	4.52
K13G	3.17
K13F	2.49
K13W	1.94
K13I	2.09
K13E	3.9
K13H	2.24
K13Q	2.84
K13P	2.12
K13S	2.48
K13V	2.13
K13Y	1.88
K13A	3.08
K13T	2.63
K13L	2.14
K13N	1.59
K13C	2.47
K13D	3.24
K13M	2.09

Variant	protein stability index
K13R	2.5
L24R	2.8
L24C	3.38
L24A	3.49
L24G	4.49
L24N	4.87
L24V	3.57
L24Q	3.98
L24H	4.29
L24I	3.5
L24T	3.55
L24F	2.43
L24M	3.13
L24Y	3.21
L24K	4.15
L24P	4.55
L24E	4.74
L24S	4.25
L24W	2.47
L24D	5.12
A23Q	2.86
A23E	4.41
A23C	2.9
A23R	2.47

Variant	protein stability index
A23V	1.75
A23I	2.09
A23Y	2.43
A23D	4.11
A23P	2.86
A23N	2.88
A23F	2.14
A23T	2.77
A23M	2.3
A23W	2.15
A23G	3.96
A23K	3.28
A23S	3.38
A23L	2.4
A23H	2.62
T21G	2.38
T21Q	4.12
T21H	3.06
T21W	2.76
T21A	3.41
T21S	3.64
T21V	1.52
T21D	4.39
T21Y	2

Variant	protein stability index
T21K	3.65
T21L	3.08
T21R	3.42
T21F	2.34
T21P	2.35
T21N	2.86
T21C	2.85
T21I	2.3
T21M	3.35
T21E	4.67
E20N	1.74
E20H	2.36
E20G	2.76
E20M	2.05
E20Y	2.31
E20S	3.18
E20T	2.44
E20C	2.28
E20W	1.32
E20I	1.85
E20K	3.13
E20A	2.88
E20R	3.02
E20Q	3.35

Variant	protein stability index
E20D	2.92
E20F	1.62
E20L	2.15
E20P	3.17
E20V	1.95
F18H	4.51
F18N	4.95
F18L	3.53
F18P	4.88
F18Y	2.97
F18A	4.78
F18R	4.29
F18E	5.3
F18W	3.67
F18K	4.67
F18T	4.97
F18D	5.17
F18S	4.89
F18M	4.1
F18G	4.47
F18Q	4.18
F18V	4.71
F18I	4.23
F18C	4.48
